The supplement of paper PMC5998384

Columns and labels:
[1] = tested on: HeLa Kyoto; test: thermal stability score vs G1/S (z-score of summed log2 fold changes over temperatures); higher = more thermally stable than in G1/S
[2] = tested on: HeLa Kyoto; test: melting temperature (median over replicates), in situ; higher = more thermally stable
[3] = tested on: HeLa Kyoto; test: solubility change mitosis vs G1/S (difference of NP-40 vs SDS log2 ratios) (log2 ratio difference); higher = more soluble in mitosis
[4] = tested on: HeLa Kyoto; test: solubility in G1/S (NP-40 vs SDS abundance) (log2 ratio); higher = more soluble; conditions: cell cycle stage: G1/S
[5] = cell cycle stage: early G1 (4.5 h after nocodazole release)
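Throughout, for melting temperature (median over replicates), in situ: HeLa Kyoto cells synchronized by double thymidine or nocodazole block, proteins quantified by TMT10plex mass spectrometry, three independent biological replicates.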
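Throughout, for solubility change mitosis vs G1/S (difference of NP-40 vs SDS log2 ratios): synchronized HeLa Kyoto cells (double thymidine block for G1/S, nocodazole release for mitosis), protein amounts in NP-40 versus SDS lysates quantified by mass spectrometry, three biological replicates.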
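Throughout, for solubility in G1/S (NP-40 vs SDS abundance): HeLa Kyoto cells arrested at G1/S by double thymidine block, proteins quantified by TMT10plex mass spectrometry in mild NP-40 versus SDS extracts, three biological replicates.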
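Throughout, for thermal stability score vs G1/S (z-score of summed log2 fold changes over temperatures): synchronized HeLa Kyoto cells, proteins quantified by TMT10plex mass spectrometry, three biological replicates, mitosis taken 0.5 h after nocodazole release, G1/S directly after double thymidine block.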

Sequence of NRBP1 (chain, as listed by the source): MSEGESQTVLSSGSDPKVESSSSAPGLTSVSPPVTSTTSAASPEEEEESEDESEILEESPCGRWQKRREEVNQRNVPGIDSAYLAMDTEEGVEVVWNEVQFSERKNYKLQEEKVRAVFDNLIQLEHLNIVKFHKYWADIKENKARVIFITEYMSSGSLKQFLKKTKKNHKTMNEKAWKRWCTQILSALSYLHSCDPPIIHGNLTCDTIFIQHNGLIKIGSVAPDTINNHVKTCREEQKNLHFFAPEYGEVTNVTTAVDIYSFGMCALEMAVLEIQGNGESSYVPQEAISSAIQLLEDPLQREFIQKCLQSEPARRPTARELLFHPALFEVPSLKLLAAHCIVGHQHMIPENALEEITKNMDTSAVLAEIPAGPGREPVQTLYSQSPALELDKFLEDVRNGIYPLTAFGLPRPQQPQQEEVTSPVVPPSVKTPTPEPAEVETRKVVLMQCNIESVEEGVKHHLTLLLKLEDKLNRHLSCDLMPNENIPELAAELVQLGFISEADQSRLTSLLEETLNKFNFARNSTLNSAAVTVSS

Substance	thermal stability score [1, 5]	thermal stability score ([1]; cell cycle stage: mitosis)	melting temperature ([2]; cell cycle stage: G1/S) [°C]	melting temperature ([2]; cell cycle stage: mitosis) [°C]	solubility change mitosis (log2) [3]	solubility in G1/S (log2) [4]
MMEGLDDGPDFLSEEDRGLKAINVDLQSDAALQVDISDALSERDKVKFTVHTKSSLPNFKQNEFSVVRQHEEFIWLHDSFVENEDYAGYIIPPAPPRPDFDASREKLQKLGEGEGSMTKEEFTKMKQELEAEYLAIFKKTVAMHEVFLCRVAAHPILRRDLNFHVFLEYNQDLSVRGKNKKEKLEDFFKNMVKSADGVIVSGVKDVDDFFEHERTFLLEYHNRVKDASAKSDRMTRSHKSAADDYNRIGSSLYALGTQDSTDICKFFLKVSELFDKTRKIEARVSADEDLKLSDLLKYYLRESQAAKDLLYRRSRSLVDYENANKALDKARAKNKDVLQAETSQQLCCQKFEKISESAKQELIDFKTRRVAAFRKNLVELAELELKHAKGNLQLLQNCLAVLNGDT [SNX6]	1.82	0.524	51.1	50.1	-0.0637	0.426
MEDYEQELCGVEDDFHNQFAAELEVLAELEGASTPSPSGVPLFTAGRPPRTFEEALARGDAASSPAPAASVGSSQGGARKRQVDADLQPAGSLPHAPRIKRPRLQVVKRLNFRSEEMEEPPPPDSSPTDITPPPSPEDLAELWGHGVSEAAADVGLTRASPAARNPVLRRPPILEDYVHVTSTEGVRAYLVLRADPMAPGVQGSLLHVPWRGGGQLDLLGVSLASLKKQVDGERRERLLQEAQKLSDTLHSLRSGEEEAAQPLGAPEEEPTDGQDASSHCLWVDEFAPRHYTELLSDDFTNRCLLKWLKLWDLVVFGHERPSRKPRPSVEPARVSKEATAPGKWKSHEQVLEEMLEAGLDPSQRPKQKVALLCGPPGLGKTTLAHVIARHAGYSVVEMNASDDRSPEVFRTRIEAATQMESVLGAGGKPNCLVIDEIDGAPVAAINVLLSILNRKGPQEVGPQGPAVPSGGGRRRRAEGGLLMRPIICICNDQFAPSLRQLKQQAFLLHFPPTLPSRLVQRLQEVSLRQGMRADPGVLAALCEKTDNDIRACINTLQFLYSRGQRELSVRDVQATRVGLKDQRRGLFSVWQEVFQLPRAQRRRVGQDPALPADTLLLGDGDAGSLTSASQRFYRVLHAAASAGEHEKVVQGLFDNFLRLRLRDSSLGAVCVALDWLAFDDLLAGAAHHSQSFQLLRYPPFLPVAFHVLFASSHTPRITFPSSQQEAQNRMSQMRNLIQTLVSGIAPATRSRATPQALLLDALCLLLDILAPKLRPVSTQLYSTREKQQLASLVGTMLAYSLTYRQERTPDGQYIYRLEPNVEELCRFPELPARKPLTYQTKQLIAREIEVEKMRRAEASARVENSPQVDGSPPGLEGLLGGIGEKGVHRPAPRNHEQRLEHIMRRAAREEQPEKDFFGRVVVRSTAVPSAGDTAPEQDSVERRMGTAVGRSEVWFRFNEGVSNAVRRSLYIRDLL [CHTF18]	1.86	2.46	47	49.3	-0.209	0.136
NRBP1	0.757	0.7	51.9	51.4	-0.15	0.099
MASSDIQVKELEKRASGQAFELILSPRSKESVPEFPLSPPKKKDLSLEEIQKKLEAAEERRKSHEAEVLKQLAEKREHEKEVLQKAIEENNNFSKMAEEKLTHKMEANKENREAQMAAKLERLREKDKHIEEVRKNKESKDPADETEAD [STMN1]	-6.5	-5.49	56.7	64.1	0.208	0.635
MPKCPKCNKEVYFAERVTSLGKDWHRPCLKCEKCGKTLTSGGHAEHEGKPYCNHPCYAAMFGPKGFGRGGAESHTFK [CRIP1]	-4.54	-5.63	57.6	53.5	0.414	-0.362
MYGASGGRAKPERKSGAKEEAGPGGAGGGGSRVELLVFGYACKLFRDDERALAQEQGQHLIPWMGDHKILIDRYDGRGHLHDLSEYDAEYSTWNRDYQLSEEEARIEALCDEERYLALHTDLLEEEARQEEEYKRLSEALAEDGSYNAVGFTYGSDYYDPSEPTEEEEPSKQREKNEAENLEENEEPFVAPLGLSVPSDVELPPTAKMHAIIERTASFVCRQGAQFEIMLKAKQARNSQFDFLRFDHYLNPYYKFIQKAMKEGRYTVLAENKSDEKKKSGVSSDNEDDDDEEDGNYLHPSLFASKKCNRLEELMKPLKVVDPDHPLAALVRKAQADSSTPTPHNADGAPVQPSQVEYTADSTVAAMYYSYYMLPDGTYCLAPPPPGIDVTTYYSTLPAGVTVSNSPGVTTTAPPPPGTTPLPPPTTAETSSGATSTTTTTSALAPVAAIIPPPPDVQPVIDKLAEYVARNGLKFETSVRAKNDQRFEFLQPWHQYNAYYEFKKQFFLQKEGGDSMQAVSAPEEAPTDSAPEKPSDAGEDGAPEDAAEVGARAGSGGKKEASSSKTVPDGKLVKASFAPISFAIKAKENDLLPLEKNRVKLDDDSDDDEESKEGQESSSSAANTNPAVAPPCVVVEEKKPQLTQEELEAKQAKQKLEDRLAAAAREKLAQASKESKEKQLQAERKRKAALFLQTLKNPLPEAEAGKIEESPFSVEESSTTPCPLLTGGRPLPTLEVKPPDRPSSKSKDPPREEEKEKKKKKHKKRSRTRSRSPKYHSSSKSRSRSHSKAKHSLPSAYRTVRRSRSRSRSPRRRAHSPERRREERSVPTAYRVSRSPGASRKRTRSRSPHEKKKKRRSRSRTKSKARSQSVSPSKQAAPRPAAPAAHSAHSASVSPVESRGSSQERSRGVSQEKEAQISSAIVSSVQSKITQDLMAKVRAMLAASKNLQTSAS [SFSWAP]	-0.391	-0.0438	50.4	50.6	0.468	-0.526
MKPGFSPRGGGFGGRGGFGDRGGRGGRGGFGGGRGRGGGFRGRGRGGGGGGGGGGGGGRGGGGFHSGGNRGRGRGGKRGNQSGKNVMVEPHRHEGVFICRGKEDALVTKNLVPGESVYGEKRVSISEGDDKIEYRAWNPFRSKLAAAILGGVDQIHIKPGAKVLYLGAASGTTVSHVSDIVGPDGLVYAVEFSHRSGRDLINLAKKRTNIIPVIEDARHPHKYRMLIAMVDVIFADVAQPDQTRIVALNAHTFLRNGGHFVISIKANCIDSTASAEAVFASEVKKMQQENMKPQEQLTLEPYERDHAVVVGVYRPPPKVKN [FBL]	-1.06	-3.39	52.9	51.5	1.49	-1.97
